Assay results published in patent US20240360218A1 (KYMAB, published 2024).

Key:
[1] = target: T1, PD-L1-Fc (R&D Systems) (UniProt Q9NZQ7 19-239); experiment: plate ELISA/DELFIA (Example 5d): biotinylated antibody on plate-bound PD-L1-Fc, streptavidin-Eu, TRF at 615 nm
T1 construct: not shown: Fc part of the bought fusion protein, not described
Description: Excess protein was removed by washing with PBS-Tween (0.1% v/v) and the wells were blocked with 250 μL/well Pierce Protein Free Blocking Buffer (Thermo, 37572) for 1 hour, after which plates were washed as described previously. […] 100 μL each antibody dilution was added to the plates in duplicate and incubated for 1 hour at room temperature, before washing as stated above. Antibody binding was detected using streptavidin labelled Europium (Perkin Elmer) diluted 1/1000 in DELFIA Assay buffer (Perkin Elmer). Plates were washed with TBS (Tris buffered saline)-Tween (0.1% v/v) and 50 μL/well of DELFIA Enhancement solution (Perkin Elmer) was added to the plate. Time-resolved fluorescence was measured at 615 nm on an Envision plate reader (PerkinElmer).

[2] = target: T2, hPD-L1-his (in-house generated recombinant human PD-L1, his-tagged) (human, UniProt Q9NZQ7 19-238, limits assumed, biotinylated in the ELISA and AlphaScreen assays (site not stated)); experiment: SPR (ProteOn), anti-human Fc capture, 25 C
T2 construct: also called biotinylated hPD-L1-his; biotinylated His-PD-L1
T2 sequence (Q9NZQ7 19-238 limits assumed): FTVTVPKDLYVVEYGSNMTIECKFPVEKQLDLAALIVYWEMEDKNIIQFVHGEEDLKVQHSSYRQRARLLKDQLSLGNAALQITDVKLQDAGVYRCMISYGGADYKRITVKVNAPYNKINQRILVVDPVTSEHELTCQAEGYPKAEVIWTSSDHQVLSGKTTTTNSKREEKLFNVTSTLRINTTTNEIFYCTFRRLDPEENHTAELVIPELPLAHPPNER
Description: Label-free surface plasmon resonance (SPR) analysis was carried out on the ProteOn XPR36 (BioRad) array SPR machine. […] The data was analysed using the 1:1 model inherent to the ProteOn XPR36 analysis software.
SPR analysis was performed as per Example 4 with the following amendments: analysis was performed at 37° C. as well as 25° C. to increase the stringency of the assay.

T1 sequence (Q9NZQ7 19-239 limits assumed): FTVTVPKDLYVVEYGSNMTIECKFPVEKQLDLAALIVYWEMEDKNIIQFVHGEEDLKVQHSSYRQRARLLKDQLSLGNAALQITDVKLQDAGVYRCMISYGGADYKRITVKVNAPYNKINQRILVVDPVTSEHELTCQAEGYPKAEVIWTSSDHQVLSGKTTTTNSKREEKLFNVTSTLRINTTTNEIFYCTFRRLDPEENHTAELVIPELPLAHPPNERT

B1: 84G09 (antibody, human IgG1, V domains shown)
VH: EVQLVESGGGLVQPGRSLRLSCAASGFTFDDYAMHWVRQTPGKGLEWVSGISWKSNIIGYADSVKGRFTISRDNAKNSLYLQMNSLRAEDTALYYCARDITGSGSYGWFDPWGQGTLVTVSS
VL: DIQMTQSPSSLSASVGDRVTITCRASQSISSYLNWYQQKPGKAPKPLIYVASSLQSGVPSSFSGSGSGTDFTLTISSLQPEDFATYYCQQSYSNPITFGQGTRLEIK
notes: kappa light chain; also called clone 84G09
EC50 (read off the curve) [1]: ~400 pM

B2: 1D05 (antibody, V domains shown)
VH: EVQLVESGGGLVQPGRSLRLSCAASGFTFDDYAMHWVRQVPGKGLEWVSGISWIRTGIGYADSVKGRFTIFRDNAKNSLYLQMNSLRAEDTALYYCAKDMKGSGTYGGWFDTWGQGTLVTVSS
VL: not shown
notes: kappa light chain; also called clone 1D05; anti-PD-L1 antibody 1D05
EC50 (read off the curve) [1]: ~400 pM

B3: 413G05 (antibody, human IgG1, V domains shown)
VH: QVQLVESGGGLVKPGGSLRLSCAASGFTFSDYYMSWIRQVPGKGLEWVSYISTSGSTIYYADSVKGRFTISRDNAKNSLYLQMNSLRAEDAAVYHCARGITGTNFYHYGLGVWGQGTTVTVSS
VL: DIQMTQSPSSVSASVGDRVTITCRASQGINSWLAWYQQKPGKAPKLLIYAASTLQSGVPSRFSGSGSGADFTLTISSLQPEDFATYYCQQVNSFPLTFGGGTKVEIK
koff [2]: 6.23e-05 s⁻¹
